Assays:
[1] = biological target: Soluble human recombinant p97 (melanotransferrin) (human) (UniProt P08582); assay: SPR (BIAcore), p97 immobilised on CM5 chip, mAb injected
[2] = biological target: Soluble human recombinant p97 (melanotransferrin) (human) (UniProt P08582); assay: SPR (BIAcore), p97 immobilised on CM5 chip, mAb injected at 0.05 µg/µl
[3] = biological target: Soluble human recombinant p97 (melanotransferrin) (human) (UniProt P08582); assay: cell-based or functional assay
[4] = biological target: endogenous membrane-bound p97 of HMEC-1 and SK-MEL28 cells (human) (UniProt P08582); assay: cell-based or functional assay
Chain of endogenous membrane-bound p97 of HMEC-1 and SK-MEL28 cells (human) (P08582 20-709): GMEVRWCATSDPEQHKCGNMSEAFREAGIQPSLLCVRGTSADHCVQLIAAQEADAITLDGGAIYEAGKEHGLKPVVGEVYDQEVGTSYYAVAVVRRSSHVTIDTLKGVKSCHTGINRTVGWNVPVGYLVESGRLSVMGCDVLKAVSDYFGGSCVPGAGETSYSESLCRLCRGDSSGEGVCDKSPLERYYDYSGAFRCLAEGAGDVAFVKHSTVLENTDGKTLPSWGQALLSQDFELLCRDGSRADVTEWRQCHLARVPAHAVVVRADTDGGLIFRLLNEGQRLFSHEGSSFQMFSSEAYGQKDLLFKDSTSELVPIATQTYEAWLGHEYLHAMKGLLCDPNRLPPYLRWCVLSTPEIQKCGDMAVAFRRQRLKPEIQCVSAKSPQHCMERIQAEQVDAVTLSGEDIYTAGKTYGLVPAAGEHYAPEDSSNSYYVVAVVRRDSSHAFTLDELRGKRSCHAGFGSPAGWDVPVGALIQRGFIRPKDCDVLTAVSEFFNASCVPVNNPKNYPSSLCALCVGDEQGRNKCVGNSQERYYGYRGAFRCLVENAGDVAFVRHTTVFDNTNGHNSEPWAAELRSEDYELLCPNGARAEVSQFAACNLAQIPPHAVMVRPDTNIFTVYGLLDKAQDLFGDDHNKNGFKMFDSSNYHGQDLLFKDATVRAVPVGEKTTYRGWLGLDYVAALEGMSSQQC

Chain of Soluble human recombinant p97 (melanotransferrin) (human) (P08582 20-711 T431K): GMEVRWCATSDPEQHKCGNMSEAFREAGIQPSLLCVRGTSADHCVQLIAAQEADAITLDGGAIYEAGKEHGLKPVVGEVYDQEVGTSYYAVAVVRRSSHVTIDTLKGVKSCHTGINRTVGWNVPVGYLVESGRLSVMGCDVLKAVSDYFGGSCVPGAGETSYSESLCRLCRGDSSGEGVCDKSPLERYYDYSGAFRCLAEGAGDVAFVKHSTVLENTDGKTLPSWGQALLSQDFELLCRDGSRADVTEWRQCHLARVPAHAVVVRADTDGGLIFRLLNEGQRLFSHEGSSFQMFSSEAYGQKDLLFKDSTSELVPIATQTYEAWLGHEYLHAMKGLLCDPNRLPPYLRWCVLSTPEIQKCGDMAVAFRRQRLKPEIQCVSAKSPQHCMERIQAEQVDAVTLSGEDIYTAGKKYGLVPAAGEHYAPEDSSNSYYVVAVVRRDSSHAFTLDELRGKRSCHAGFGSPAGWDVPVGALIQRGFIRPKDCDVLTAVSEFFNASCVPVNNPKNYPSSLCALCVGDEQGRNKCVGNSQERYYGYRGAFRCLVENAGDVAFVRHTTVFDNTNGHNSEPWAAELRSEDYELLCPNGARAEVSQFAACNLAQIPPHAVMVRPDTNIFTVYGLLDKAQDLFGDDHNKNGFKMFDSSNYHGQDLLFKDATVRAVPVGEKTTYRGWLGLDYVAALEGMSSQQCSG

Ka [1]: 9e+08 M⁻¹
Kd [1]: 1.2 nM
koff [1]: 5.3e-05 s⁻¹
kon [1]: 44000 M⁻¹ s⁻¹
ΔRU [2]: 1060 RU
inhibition of the effect of soluble p97 on plasminogen activation by tPA [3]: 80%
inhibition of the pro-uPA activation induced by p97 (plasminolytic activity) [3]: 50%
inhibition of HMEC-1 cell migration by 50 nM mAb L235 (Boyden chamber) [4]: 54%
inhibition of SK-MEL28 cell migration by 50 nM mAb L235 (Boyden chamber) [4]: 48%
inhibition of plasminolytic activity of HMEC-1 cells by 250 nM mAb L235 [4]: > 50%
Substance: monoclonal antibody L235 directed against p97

Reference: patent publication US20070053894A1
